Assay [1] deals with Human ICOS (human) (UniProt Q9Y6W8). Put plainly: in vivo target engagement, flow cytometry on human peripheral blood CD4+ T cells, 0.1 mg/kg, Day 42. For orientation: A flow cytometer gives signals particle by particle.
Assay [2] shares this target. The assay is described as follows: in vivo target engagement, flow cytometry on human peripheral blood CD4+ T cells, 0.1 mg/kg, Day 42, average of three subjects.
Assay [3] shares this target. Put plainly: in vivo target engagement, flow cytometry on human peripheral blood CD4+ T cells, average of three subjects after first i.v. dose of 0.1 mg/kg.

Chain of Human ICOS (human) (Q9Y6W8 21-199): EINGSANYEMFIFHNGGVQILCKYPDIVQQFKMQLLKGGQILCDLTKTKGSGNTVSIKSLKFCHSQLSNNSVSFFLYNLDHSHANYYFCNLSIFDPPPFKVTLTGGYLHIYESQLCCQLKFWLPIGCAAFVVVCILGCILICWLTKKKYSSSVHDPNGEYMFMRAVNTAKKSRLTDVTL

For the substance JTX-2011 (antibody), the target engagement with Human ICOS (human) [1] was less than 40%; in the assay with Human ICOS (human) [2], 10%; in the assay with Human ICOS (human) [3], 100%.

The values are drawn from patent US20220135682A1.
